Data: paper PMC2610489 (Developmental cell, 2008)

Target: T1, Homothorax (Hth) (Drosophila, UniProt O46339 1-487)
T1 sequence (looked up): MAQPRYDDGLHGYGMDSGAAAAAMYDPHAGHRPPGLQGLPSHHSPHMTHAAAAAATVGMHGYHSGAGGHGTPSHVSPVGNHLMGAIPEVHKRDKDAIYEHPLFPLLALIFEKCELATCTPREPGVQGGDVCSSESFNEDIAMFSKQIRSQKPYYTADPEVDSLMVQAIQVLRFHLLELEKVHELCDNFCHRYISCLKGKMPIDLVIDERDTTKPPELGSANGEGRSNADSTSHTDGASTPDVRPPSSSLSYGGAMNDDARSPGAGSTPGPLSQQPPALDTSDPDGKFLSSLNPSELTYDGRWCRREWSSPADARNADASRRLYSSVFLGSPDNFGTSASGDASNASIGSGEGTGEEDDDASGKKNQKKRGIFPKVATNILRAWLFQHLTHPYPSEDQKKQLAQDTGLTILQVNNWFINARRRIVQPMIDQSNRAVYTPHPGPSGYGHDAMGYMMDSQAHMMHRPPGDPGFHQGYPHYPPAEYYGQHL
Experiment: native gel or EMSA

binding result: binds
B1: Extradenticle (Exd) (natural protein, Drosophila, UniProt P40427 1-376, looked up)
chain: MEDPNRMLAHTGGMMAPQGYGLSGQDDGQNAGSENEVRKQKDIGEILQQIMSISEQSLDEAQARKHTLNCHRMKPALFSVLCEIKEKTVLSIRNTQEEEPPDPQLMRLDNMLIAEGVAGPEKGGGGAAAASAAAASQGGSLSIDGADNAIEHSDYRAKLAQIRQIYHQELEKYEQACNEFTTHVMNLLREQSRTRPITPKEIERMVQIIHKKFSSIQMQLKQSTCEAVMILRSRFLDARRKRRNFSKQASEILNEYFYSHLSNPYPSEEAKEELARKCGITVSQVSNWFGNKRIRYKKNIGKAQEEANLYAAKKAAGASPYSMAGPPSGTTTPMMSPAPPQDSMGYPMGSGGYDQQQPYDNSMGGYDPNLHQDLSP
